The text below walks through data of article PMC8998617 (2022).

This test concerns the target recombinant human full-length Tau (2N4R, 441 aa), non-phosphorylated (human, UniProt P10636-8 1-441). As to the kind of experiment: SPR. A general note: Surface plasmon resonance follows binding to a sensor surface in real time, without labels.

B1: Nup98-FG/FS (full F/S mutant of Nup98-FG) (domain or fragment)
chain: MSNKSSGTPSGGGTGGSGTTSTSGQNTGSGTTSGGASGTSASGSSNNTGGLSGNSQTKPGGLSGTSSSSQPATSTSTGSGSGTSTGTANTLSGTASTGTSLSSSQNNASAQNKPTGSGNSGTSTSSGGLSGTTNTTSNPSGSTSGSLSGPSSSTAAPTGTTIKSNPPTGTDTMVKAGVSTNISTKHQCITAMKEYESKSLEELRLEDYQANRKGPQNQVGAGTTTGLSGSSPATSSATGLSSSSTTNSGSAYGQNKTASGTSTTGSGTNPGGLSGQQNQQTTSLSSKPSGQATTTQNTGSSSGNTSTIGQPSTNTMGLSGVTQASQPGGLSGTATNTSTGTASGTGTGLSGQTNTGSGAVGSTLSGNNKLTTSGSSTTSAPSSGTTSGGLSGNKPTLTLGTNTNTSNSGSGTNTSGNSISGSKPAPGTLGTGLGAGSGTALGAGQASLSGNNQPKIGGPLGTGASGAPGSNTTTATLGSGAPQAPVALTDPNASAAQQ
With B1, the Kd came out at 360 nM.

For orientation: Kd means the equilibrium constant for the complex coming apart.
